Data reported in patent publication US20190203302A1, “BIOMARKER C[…]-1 AS ACTIVE INGREDIENT, FOR DIAGNOSIS OF RADIATION-RESISTANT CANCER OR PREDICTION OF RADIATION THERAPY PROGNOSIS” (UNIVERSITY OF ULSAN FOUNDATION FOR INDUSTRY COOPERATION, priority 2016, published 2019).

Biological target: T1, LRP-1 (Homo sapiens, UniProt Q07954)
T1 construct: Proteins were extracted from colon cancer tissues of each case according to radiation irradiation; from tissue; host or cells: patient colon cancer tissue (0 Gy / 2 Gy) transplanted and subcultured in nude mice
T1 sequence (Q07954 20-4544): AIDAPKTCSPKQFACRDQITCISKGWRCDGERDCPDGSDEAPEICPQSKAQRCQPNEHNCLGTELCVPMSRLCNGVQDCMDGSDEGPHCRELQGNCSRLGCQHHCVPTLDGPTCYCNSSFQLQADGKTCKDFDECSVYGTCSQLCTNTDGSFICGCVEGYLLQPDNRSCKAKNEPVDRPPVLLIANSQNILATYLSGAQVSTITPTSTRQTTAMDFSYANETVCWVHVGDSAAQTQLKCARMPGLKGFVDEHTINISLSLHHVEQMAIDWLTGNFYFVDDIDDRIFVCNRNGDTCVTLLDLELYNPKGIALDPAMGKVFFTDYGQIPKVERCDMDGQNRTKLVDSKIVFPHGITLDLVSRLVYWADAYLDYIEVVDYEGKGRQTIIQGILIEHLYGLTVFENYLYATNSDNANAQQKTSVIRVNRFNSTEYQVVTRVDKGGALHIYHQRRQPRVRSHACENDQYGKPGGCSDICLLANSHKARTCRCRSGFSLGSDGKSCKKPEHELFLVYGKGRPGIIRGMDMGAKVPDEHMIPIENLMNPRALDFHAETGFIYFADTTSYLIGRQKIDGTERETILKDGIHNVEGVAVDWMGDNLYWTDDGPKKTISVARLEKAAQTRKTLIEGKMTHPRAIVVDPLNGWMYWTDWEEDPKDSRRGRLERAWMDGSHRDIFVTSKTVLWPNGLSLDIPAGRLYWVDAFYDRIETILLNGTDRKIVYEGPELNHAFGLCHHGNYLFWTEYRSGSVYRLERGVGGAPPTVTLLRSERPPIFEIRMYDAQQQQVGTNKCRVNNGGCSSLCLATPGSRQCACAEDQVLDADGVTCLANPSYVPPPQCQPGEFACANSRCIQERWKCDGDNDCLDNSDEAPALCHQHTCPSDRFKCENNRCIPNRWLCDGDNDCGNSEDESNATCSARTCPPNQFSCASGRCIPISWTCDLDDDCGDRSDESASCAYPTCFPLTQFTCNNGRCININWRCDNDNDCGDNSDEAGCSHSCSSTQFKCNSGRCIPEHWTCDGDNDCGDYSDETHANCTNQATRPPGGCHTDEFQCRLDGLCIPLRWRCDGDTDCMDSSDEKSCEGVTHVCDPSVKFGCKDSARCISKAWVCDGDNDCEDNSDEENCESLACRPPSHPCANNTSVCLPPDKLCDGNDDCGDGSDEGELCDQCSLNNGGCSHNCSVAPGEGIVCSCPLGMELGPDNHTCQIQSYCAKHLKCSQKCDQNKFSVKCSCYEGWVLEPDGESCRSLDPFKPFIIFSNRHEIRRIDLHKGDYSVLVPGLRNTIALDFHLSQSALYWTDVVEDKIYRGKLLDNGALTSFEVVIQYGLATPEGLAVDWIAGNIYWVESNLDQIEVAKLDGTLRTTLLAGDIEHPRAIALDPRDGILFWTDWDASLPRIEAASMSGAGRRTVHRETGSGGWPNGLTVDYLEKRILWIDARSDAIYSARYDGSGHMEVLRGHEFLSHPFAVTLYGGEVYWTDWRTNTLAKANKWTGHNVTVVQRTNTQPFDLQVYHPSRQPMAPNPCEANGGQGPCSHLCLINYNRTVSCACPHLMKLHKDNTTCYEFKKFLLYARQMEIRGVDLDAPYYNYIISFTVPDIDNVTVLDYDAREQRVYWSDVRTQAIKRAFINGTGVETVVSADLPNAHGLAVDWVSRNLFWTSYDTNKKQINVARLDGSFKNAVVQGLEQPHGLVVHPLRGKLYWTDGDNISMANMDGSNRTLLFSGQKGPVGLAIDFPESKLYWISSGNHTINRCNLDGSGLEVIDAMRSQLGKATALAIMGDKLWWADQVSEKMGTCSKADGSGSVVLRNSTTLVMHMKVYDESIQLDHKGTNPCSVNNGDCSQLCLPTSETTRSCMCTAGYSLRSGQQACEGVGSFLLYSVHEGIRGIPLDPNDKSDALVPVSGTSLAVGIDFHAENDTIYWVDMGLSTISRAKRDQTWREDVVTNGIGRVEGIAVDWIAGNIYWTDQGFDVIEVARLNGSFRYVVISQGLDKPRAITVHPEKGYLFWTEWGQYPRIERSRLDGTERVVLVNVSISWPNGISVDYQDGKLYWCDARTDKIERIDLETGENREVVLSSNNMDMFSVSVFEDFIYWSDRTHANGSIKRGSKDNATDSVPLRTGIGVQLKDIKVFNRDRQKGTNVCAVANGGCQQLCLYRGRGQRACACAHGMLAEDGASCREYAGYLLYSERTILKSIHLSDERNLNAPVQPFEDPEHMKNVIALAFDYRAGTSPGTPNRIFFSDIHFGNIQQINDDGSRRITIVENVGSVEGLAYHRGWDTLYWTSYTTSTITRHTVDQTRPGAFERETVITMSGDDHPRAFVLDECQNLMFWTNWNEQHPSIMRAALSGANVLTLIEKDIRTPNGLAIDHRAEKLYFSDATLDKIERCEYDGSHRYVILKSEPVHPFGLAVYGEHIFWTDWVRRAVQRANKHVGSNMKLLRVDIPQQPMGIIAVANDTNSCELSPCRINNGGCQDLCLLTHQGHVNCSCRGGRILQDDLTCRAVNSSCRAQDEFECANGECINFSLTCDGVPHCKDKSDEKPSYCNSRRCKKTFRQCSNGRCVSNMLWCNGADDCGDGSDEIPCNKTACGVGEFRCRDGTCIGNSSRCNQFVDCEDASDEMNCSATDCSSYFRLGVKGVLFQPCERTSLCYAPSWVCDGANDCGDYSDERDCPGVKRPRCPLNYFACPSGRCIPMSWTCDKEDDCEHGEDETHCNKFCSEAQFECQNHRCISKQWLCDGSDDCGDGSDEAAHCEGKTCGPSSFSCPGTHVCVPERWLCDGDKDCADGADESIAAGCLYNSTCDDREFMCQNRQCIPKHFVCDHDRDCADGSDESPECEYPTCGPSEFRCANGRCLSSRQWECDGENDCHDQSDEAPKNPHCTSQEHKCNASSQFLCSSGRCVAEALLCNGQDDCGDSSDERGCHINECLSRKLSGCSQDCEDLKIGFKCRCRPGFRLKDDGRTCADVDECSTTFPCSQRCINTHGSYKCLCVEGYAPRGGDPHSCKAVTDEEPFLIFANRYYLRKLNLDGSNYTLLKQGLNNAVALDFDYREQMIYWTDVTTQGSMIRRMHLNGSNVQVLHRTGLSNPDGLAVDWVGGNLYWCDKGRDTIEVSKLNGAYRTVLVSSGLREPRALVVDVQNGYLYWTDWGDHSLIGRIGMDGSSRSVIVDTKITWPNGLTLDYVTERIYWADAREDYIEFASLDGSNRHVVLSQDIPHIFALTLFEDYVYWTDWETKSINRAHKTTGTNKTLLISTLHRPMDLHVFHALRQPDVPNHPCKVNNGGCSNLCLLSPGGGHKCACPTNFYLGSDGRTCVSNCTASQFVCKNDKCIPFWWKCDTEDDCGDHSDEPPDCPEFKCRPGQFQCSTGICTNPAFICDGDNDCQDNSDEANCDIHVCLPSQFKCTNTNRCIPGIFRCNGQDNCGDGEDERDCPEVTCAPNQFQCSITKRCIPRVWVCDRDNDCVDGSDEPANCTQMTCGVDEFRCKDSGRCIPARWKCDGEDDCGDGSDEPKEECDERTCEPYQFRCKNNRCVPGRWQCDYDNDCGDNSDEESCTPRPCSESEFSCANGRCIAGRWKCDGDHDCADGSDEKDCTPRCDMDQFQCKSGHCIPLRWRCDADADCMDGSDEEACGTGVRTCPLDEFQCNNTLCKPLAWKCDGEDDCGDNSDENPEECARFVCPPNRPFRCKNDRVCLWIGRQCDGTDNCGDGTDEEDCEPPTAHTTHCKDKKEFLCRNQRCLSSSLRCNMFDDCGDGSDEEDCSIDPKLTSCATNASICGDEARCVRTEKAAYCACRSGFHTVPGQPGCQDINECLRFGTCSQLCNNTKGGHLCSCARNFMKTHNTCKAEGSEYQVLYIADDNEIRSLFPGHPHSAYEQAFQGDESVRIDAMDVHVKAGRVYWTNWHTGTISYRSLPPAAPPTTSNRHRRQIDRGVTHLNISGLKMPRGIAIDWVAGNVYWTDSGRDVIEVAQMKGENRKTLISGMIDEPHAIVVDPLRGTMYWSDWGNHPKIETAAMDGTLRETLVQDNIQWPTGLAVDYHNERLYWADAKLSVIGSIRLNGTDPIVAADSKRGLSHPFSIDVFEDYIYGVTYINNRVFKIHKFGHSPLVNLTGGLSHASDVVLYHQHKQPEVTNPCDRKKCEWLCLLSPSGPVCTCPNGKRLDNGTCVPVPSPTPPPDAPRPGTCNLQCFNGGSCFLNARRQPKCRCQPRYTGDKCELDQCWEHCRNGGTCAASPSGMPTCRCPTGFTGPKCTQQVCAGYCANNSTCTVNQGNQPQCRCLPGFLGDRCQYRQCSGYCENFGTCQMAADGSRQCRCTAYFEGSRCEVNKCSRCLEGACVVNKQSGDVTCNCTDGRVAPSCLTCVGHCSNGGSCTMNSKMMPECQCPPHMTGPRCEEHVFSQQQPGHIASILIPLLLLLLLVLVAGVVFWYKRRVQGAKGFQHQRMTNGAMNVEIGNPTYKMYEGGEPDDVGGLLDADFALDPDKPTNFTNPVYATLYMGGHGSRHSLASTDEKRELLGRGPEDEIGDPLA
Assay: Immunoprecipitation assay of TPSFSKI peptide phage and LRP-1, confirmed by western blotting
Type: binding
Conditions: proteins extracted from colon cancer tissues, 0 Gy/2 Gy irradiation, LRP-1 and M13 antibodies, IgG beads
Text: Lysate: 0 Gy/2 Gy protein extracted from radiation colon cancer tissue, IP (B5 phage): 0 Gy/2 Gy Immunoprecipitation with a specific peptide phage in protein extracted from radiation colon cancer tissue, IP (wt phage): 0 Gy/2 Gy Immunoprecipitation in protein extracted from radiation colon cancer tissue with phage without peptide, IP (w/o Ab): 0 Gy/2 Gy Immunoprecipitation without antibody in protein extracted from radiation colon cancer tissue, phage lysate: protein extracted from peptide phage targeting by irradiation in radiation resistant colon cancer tissue, Antibody: LRP-1 antibody
Based on the indirect verification that LRP-1 is a binding partner protein of the TPSFSKI peptide sequence in Examples 3 to 5, an immunoprecipitation assay was performed to directly determine whether […] was bound to the TPSFSKI sequence. Proteins were extracted from colon cancer tissues of each case according to radiation irradiation, and immunoprecipitation was performed using LRP-1 and M13 antibodies and IgG beads.

TPSFSKI [TPSFSKI peptide, used as peptide phage]
binding of LRP-1 to the TPSFSKI sequence (immunoprecipitation): LRP-1 is a binding partner protein of TPSFSKI peptide
